Assay results taken from patent US20210388081A1 (Memorial Sloan Kettering, published 2021).

Tests used:
SLAMF9 protein = SLAMF9 protein (UniProt Q96A28 19-236, limits assumed); assay: phage clone on SLAMF9 protein
[1] = target: T1, FcRL1, overexpressed on 3T3 cells (UniProt Q96LA6 17-429, limits assumed); assay: phage clone on 3T3-FcRL1 cells
T1 construct: whole, on cells
T1 sequence (looked up): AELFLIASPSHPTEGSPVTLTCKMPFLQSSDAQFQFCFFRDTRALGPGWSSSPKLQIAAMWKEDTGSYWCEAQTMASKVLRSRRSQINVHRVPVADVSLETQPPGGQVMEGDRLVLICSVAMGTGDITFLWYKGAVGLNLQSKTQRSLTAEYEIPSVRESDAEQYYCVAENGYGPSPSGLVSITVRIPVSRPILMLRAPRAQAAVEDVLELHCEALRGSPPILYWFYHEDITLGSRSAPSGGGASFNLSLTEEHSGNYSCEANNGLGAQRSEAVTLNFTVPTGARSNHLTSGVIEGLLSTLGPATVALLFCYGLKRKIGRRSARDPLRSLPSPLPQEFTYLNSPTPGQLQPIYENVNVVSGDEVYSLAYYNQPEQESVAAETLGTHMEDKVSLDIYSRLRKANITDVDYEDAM

[2] = target: T2, FcRL2, overexpressed on 3T3 cells (UniProt Q96LA5 20-508, limits assumed); assay: phage clone on 3T3-FcRL2 cells
T2 construct: whole, on cells
T2 sequence (looked up): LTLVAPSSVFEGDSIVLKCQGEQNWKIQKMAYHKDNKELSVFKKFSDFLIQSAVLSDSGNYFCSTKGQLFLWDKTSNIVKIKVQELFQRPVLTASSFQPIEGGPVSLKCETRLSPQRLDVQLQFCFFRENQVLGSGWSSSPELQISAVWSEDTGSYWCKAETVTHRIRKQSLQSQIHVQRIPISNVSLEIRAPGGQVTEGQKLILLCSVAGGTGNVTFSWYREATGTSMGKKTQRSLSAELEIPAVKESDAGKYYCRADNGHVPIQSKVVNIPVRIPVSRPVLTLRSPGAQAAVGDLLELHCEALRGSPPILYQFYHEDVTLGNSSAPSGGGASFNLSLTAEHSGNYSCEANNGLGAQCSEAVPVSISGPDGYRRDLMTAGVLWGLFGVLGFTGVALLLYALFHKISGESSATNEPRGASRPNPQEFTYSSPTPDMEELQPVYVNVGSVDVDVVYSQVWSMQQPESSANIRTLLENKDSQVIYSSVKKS

[3] = target: T3, FcRL6, overexpressed on 3T3 cells (UniProt Q6DN72 20-434, limits assumed); assay: phage clone on 3T3-FcRL6 cells
T3 construct: whole, on cells
T3 sequence (looked up): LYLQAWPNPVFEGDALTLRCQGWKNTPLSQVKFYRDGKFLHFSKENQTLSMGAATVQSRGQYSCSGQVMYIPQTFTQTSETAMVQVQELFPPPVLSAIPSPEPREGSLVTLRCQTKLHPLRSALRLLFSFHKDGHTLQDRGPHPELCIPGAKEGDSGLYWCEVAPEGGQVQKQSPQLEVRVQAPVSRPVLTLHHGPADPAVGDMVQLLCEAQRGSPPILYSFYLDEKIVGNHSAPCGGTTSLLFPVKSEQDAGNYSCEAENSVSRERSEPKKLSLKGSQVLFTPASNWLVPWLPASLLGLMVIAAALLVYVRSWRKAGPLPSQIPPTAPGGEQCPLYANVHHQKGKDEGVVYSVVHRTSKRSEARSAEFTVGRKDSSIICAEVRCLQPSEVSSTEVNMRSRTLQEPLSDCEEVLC

[4] = target: T4, Fc Receptor-like 5 (FcRL5), full length, overexpressed on 3T3 or Raji cells (human, UniProt Q96RD9 16-977); assay: phage clone screening on cells
T4 construct: also called 3T3-FcRL5
T4 sequence: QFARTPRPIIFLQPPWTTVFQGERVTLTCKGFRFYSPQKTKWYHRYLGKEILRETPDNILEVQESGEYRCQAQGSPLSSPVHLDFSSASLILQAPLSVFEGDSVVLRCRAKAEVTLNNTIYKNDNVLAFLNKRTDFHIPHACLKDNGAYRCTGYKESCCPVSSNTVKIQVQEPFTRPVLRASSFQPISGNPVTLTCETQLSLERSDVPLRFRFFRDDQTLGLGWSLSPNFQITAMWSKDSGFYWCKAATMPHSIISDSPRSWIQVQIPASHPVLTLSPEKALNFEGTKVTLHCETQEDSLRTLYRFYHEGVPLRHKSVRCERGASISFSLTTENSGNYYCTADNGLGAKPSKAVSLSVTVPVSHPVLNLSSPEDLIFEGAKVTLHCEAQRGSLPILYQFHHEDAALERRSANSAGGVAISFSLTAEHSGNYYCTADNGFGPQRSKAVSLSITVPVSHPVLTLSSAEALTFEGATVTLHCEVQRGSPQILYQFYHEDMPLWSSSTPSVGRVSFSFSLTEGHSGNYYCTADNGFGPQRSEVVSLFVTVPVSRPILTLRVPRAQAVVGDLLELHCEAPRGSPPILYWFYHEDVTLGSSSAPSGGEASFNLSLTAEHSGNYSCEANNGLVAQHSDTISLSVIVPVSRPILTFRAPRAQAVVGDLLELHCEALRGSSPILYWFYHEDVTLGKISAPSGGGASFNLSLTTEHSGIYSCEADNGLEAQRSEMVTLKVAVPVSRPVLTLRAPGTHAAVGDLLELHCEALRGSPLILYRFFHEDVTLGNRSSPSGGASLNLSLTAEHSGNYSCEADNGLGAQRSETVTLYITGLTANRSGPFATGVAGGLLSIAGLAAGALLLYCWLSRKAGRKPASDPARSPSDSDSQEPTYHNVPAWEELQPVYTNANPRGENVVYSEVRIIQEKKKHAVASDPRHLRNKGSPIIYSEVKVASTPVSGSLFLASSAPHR
Outline: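 scFv phage clones were incubated with live 3T3 cells overexpressing full-length FcRL5, then detected with mouse anti-M13 mAb and PE-anti-mouse Ig by flow cytometry. 3T3 cells expressing FcRL1, 2, 3, 4 or 6 served as negative-control targets.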

Chain of SLAMF9 protein (Q96A28 19-236 limits assumed): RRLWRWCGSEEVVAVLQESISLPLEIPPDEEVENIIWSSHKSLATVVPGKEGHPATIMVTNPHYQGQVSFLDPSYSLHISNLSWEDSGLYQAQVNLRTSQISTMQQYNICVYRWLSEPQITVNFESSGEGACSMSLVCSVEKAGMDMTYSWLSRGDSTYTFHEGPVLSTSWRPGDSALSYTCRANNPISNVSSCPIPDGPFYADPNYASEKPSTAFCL

Row | Binder | binding result (SLAMF9 protein) | binding result [1] | binding result [2] | binding result [3] | binding result [4]
1 | ET200-042 (scFv, screened as phage clone; entry is VL-linker-VH-His tag-HA tag) scFv: QSVVTQPPSVSGAPGQTVTISCTGGSSNIGTGYFVNWYQQVPGKAPKLLILGNNNRPSGVPDRLSGSTSGTSASLAITGLQAEDEGTYYCQSYDSSLSGYVFGTGTKVTVLGSRGGGGSGGGGSGGGGSLEMAQVQLQQSGPGLVKPSQTLSLTCGISGDSVSTNSVAWHWIRQSPSRGLEWLGRTYYRSKWSNDYGVSVKSRITIIPDTSKNQFSLQLNSVTPEDTAVYYCARSSSWYQIFDYWGQGTLVTVSSTSGQAGQHHHHHHGAYPYDVPDYAS | no binding | no binding | no binding | no binding | binds
2 | ET200-044 (scFv, screened as phage clone; entry is VL-linker-VH-His tag-HA tag) scFv: QSVLTQPPSVSVSPGQTATIACSGHKLGDKYASWYQQKSGQSPVLIIYQDNKRPSGIPERFSGSNSGNTATLTISGTQALDEADYYCQAWDSSTYVAFGGGTKLTVLGSRGGGGSGGGGSGGGGSLEMAQVQLQESGPGLVKPSETLSLTCVVSGGSISSSNWWSWVRQPPGKGLEWIGEIYHSGSPNYNPSLKSRVTISVDKSKNQFSLKLSSVTAADTAVYYCARMTTHTFGYDAWGQGTLVTVSSTSGQAGQHHHHHHGAYPYDVPDYAS | no binding | no binding | no binding | no binding | binds
3 | ET200-045 (scFv, screened as phage clone; entry is VL-linker-VH-His tag-HA tag) scFv: QPVLTQPPSVSVAPGKTATITCGGNNIGSESVHWYHQKPGQAPVLVIYDDAGRPSGIPERFTGSNSGNTATLTISRVEAGDEADYYCQVWDRNSAQFVFGPGTKVTVLGSRGGGGSGGGGSGGGGSLEMAEVQLVQSGAEVKKPGASVKVSCKASGYTFTSYGISWVRQAPGQGLEWMGWISAYNGNTNYAQKLQGRVTMTTDTSTSTAYMELRSLRSDDTAVYYCARGVHLDWWGQGTLVTVSSTSGQAGQHHHHHHGAYPYDVPDYAS | no binding | no binding | no binding | no binding | binds
4 | ET200-069 (scFv, screened as phage clone; entry is VL-linker-VH-His tag-HA tag; also called ET200-69) scFv: QSVVTQPPSASGTPGQRVTISCSGSSSNIGSNYVYWYQQLPGTAPKLLIYSNNQRPSGVPDRFSGSKSGTSASLAISGLRSEDEADYYCAAWDDSLSGYVFGTGTKLTVLGSRGGGGSGGGGSGGGGSLEMAQVQLQQWGAGLLKPSETLSLTCAVYGGSFSGYYWSWIRQPPGKGLEWIGEINHSGSTNYNPSLKSRVTISVDTSKNQFSLKLSSVTAADTAVYYCARLYEGGYHGWGSWLSSDSWGQGTLVTVSSTSGQAGQHHHHHHGAYPYDVPDYAS | no binding | no binding | no binding | no binding | binds
5 | ET200-079 (scFv, screened as phage clone; entry is VL-linker-VH-His tag-HA tag) scFv: SYELTQPPSASGTPGQRVTISCSGSSSNIGSNYVYWYQQLPGTAPKLFIYRNNQRPSGVPDRFSGSKSGTSASLAISGLRSEDEADYYCAAWDDSLSGYLFGTGTKVTVLGSRGGGGSGGGGSGGGGSLEMAEVQLVESGGGLVQPGRSLRLSCAASGFTFDDYAMHWVRQAPGKGLEWVSGISWNSGSIGYADSVKGRFTISRDNAKNSLYLQMNSLRAEDTALYYCANGDSNYYYGMDVWGQGTTVTVSSTSGQAGQHHHHHHGAYPYDVPDYAS | no binding | no binding | no binding | no binding | binds
6 | ET200-081 (scFv, screened as phage clone; entry is VL-linker-VH-His tag-HA tag) scFv: QSALTQPASVSGSPGQSITISCTGTSSDIGGYNYVSWYQQHPGKAPKLMIYDVSNRPSGVSNRFSGSKSGNTASLTISGLQAEDEADYYCISYTRTWNPYVFGSGTKVTVLGSRGGGGSGGGGSGGGGSLEMAEVQLVQSGGGVVQPGGSLRLSCAASGFTFDDYAMHWVRQAPGKGLEWVSLISGDGGSTYYADSVKGRFTISRDNSKNSLYLQMNSLRTEDTALYYCAKDRAAAGYYYYGMDVWGQGTTVTVSSTSGQAGQHHHHHHGAYPYDVPDYAS | no binding | no binding | no binding | no binding | binds
7 | ET200-097 (scFv, screened as phage clone; entry is VL-linker-VH-His tag-HA tag) scFv: LPVLTQPPSVSVSPGQTAIITCSGDKLGEKYVSWYQQKPGQSPVLVIDQDTRRPSGIPERFSGSNSGTTATLTISGTQAMDEADYYCQAWDRGVVFGGGTKLTVLGSRGGGGSGGGGSGGGGSLEMAEVQLVESGGDLVQPGRSLRLSCAASGFTFNDYAMHWVRQAPGKGLEWVSGISWSGNNIGYADSVKGRFTISRDNAKNSLYLQMNSLRAEDTALYYCAKDSIRYGITWGGFDYWGQGTLVTVSSTSGQAGQHHHHHHGAYPYDVPDYAS | no binding | no binding | no binding | no binding | binds
8 | ET200-098 (scFv, screened as phage clone; entry is VL-linker-VH-His tag-HA tag) scFv: QPVLTQPPSVSKGLRQTATLTCTGNSNNVGNLGVAWLQQHQGHPPKLLSYRNNNRPSGISERLSASRSGNTASLTITGLQPEDEADYYCSAWDSSLSAWVFGGGTKLTVLGSRGGGGSGGGGSGGGGSLEMAEVQLVESGGVVVQPGGSLRLSCAASGFTFDDYAMHWVRQAPGKGLEWVSLINWDGGSTYYADSVKGRFTISRDNSKNSLYLQMNSLRAEDTALYYCAKGMGLRAFDYWGQGTLVTVSSTSGQAGQHHHHHHGAYPYDVPDYAS | no binding | no binding | no binding | no binding | binds
9 | ET200-006 (scFv, screened as phage clone; entry is VL-linker-VH-His tag-HA tag) scFv: SYVLTQPPSVSVAPGKTARITCGGNNIGSKSVHWYQQKPGQAPVVVIHYDSDRPSGIPERFSGSNSGNTATLTISRVEAGDEADYYCQVWDSSSDHPYVFGTGTKVTVLGSRGGGGSGGGGSGGGGSLEMAEVQLVQSGAEVKKPGASVKVSCKASGYTFTTYGISWVRQAPGQGLEWMGWINTYNGHTNYAQKLQGRATMTADTSTNTAYMELRSLRSDDTAVYYCARVIYGSGDYWGQGTLVTVSSTSGQAGQHHHHHHGAYPYDVPDYAS | no binding | no binding | no binding | no binding | binds
